# PMC7337494 (The Journal of Cell Biology, 2020)
# B1: 217-MGD (extended OPA1-MGD, residues 217–580 and 938–960 connected by the artificial linker) (domain or fragment)
# chain: not shown
# Biological target: the molecule itself
# Experiment: AUC
protein,measurement,value
B1,stoichiometry N,2
